This assay has as its target integrin α3β1 on gastric cancer cells (MKN45, MKN45/CTGF, AGS) (human) (UniProt P26006). Kind of assay: cell-based or functional assay.
Chain of UniProt P26006 (P26006 33-1051, chain 1 of 2): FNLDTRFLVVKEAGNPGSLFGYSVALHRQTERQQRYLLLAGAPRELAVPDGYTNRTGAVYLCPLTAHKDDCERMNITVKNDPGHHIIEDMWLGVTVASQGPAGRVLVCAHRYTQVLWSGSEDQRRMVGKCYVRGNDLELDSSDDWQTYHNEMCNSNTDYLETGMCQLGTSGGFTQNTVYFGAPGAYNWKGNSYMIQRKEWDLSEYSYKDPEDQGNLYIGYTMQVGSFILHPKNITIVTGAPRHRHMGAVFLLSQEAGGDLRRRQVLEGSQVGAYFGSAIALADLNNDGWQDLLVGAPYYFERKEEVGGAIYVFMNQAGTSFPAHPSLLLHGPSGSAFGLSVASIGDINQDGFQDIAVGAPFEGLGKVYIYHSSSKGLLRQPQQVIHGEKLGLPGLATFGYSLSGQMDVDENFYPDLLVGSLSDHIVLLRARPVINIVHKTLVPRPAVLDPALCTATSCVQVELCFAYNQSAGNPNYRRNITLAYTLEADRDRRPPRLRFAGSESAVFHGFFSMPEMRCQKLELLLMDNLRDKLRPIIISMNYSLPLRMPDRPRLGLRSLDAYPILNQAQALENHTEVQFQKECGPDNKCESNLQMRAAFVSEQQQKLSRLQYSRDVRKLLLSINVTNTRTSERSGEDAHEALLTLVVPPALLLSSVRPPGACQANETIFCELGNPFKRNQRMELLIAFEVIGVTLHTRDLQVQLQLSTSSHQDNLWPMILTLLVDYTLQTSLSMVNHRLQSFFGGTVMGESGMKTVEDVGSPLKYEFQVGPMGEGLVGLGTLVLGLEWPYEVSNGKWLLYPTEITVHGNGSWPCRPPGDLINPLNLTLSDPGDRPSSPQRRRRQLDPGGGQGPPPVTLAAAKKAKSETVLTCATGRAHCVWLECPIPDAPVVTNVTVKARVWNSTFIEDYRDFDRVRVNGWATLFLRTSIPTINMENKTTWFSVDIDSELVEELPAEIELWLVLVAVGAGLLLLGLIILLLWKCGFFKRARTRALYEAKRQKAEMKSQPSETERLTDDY
Chain of UniProt P26006 (P05556 21-798, chain 2 of 2, further chain): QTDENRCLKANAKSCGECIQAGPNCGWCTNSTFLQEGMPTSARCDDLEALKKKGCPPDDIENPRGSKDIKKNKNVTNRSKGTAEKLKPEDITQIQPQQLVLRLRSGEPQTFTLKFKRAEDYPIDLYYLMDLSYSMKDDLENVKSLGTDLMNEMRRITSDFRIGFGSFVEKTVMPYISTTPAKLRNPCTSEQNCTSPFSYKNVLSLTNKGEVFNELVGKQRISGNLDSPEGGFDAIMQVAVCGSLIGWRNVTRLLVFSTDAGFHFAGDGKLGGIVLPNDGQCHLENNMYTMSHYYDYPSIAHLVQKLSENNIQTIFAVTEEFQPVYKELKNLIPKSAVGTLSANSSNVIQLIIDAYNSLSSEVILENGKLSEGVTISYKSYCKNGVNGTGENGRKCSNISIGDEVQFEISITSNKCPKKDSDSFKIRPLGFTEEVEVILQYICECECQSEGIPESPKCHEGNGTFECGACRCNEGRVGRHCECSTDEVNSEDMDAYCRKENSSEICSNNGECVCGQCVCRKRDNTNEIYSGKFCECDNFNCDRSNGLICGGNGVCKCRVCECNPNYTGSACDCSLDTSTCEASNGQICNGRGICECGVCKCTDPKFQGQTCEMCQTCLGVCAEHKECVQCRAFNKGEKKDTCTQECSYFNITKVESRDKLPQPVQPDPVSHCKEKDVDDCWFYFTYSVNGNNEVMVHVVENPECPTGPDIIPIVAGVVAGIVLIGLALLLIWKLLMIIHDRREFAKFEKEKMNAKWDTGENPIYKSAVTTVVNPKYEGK

“recombinant CTGF C terminal (CT) domain (from UniProt P29279 253-349) (ligand)” displayed an adhesion inhibition (MKN45 cells, matrigel adhesion assay, 6 hours post treatment, 50 ng rCTGF) of 50%; an adhesion inhibition (MKN45 cells, matrigel adhesion assay, 6 hours post treatment, 100 ng rCTGF) of 70%; an adhesion inhibition (MKN45 cells, matrigel adhesion assay, 6 hours post treatment, 200 ng rCTGF) of 75%.

The values are drawn from patent US20140162950A1.
